Consider four molecules from US20210388110A1.

The labels stand for the following.
B1: TR01H084-E2702GsKsc/GCH065-E2704sEpsc/L0011-k0 (bispecific antibody, human IgG4 S228P, kappa, N297A)
heavy 1: QVQLVESGGGVVQPGGSLRLSCAASGFTFSNAWMHWVRQAPGKGLEWVAQIKDKSQNYATYYAESVKGRFTISRADSKNSIYLQMNSLKTEDTAVYYCRYVHYAAGYGVDIWGQGTTVTVSSASTKGPSVFPLAPCSRSTSESTAALGCLVKDYFPEPVTVSWNSGALTSGVHTFPAVLQSSGLYSLSSVVTVPSSSLGTKTYTCNVDHKPSNTKVDKRVESKYGPPCPPCPAPEFRGGPKVFLFPPKPKDTLMISRTPEVTCVVVDVSQEDPEVQFNWYVDGVEVHNAKTKPREEQFASTYRVVSVLTVLHQDWLNGKEYKCKVSNKGLPSSIEKTISKAKGQPREPQVYTLPPSQKEMTKNQVSLTCLVKGFYPSDIAVEWESNGQPENNYKTTPPVLDSDGSFFLYSKLTVDKSRWQEGNVFSCSVMHEALHNRYTQKSLSLSP
heavy 2: QVQLVQSGAEVKKPGASVTVSCKASGYTFTDYEMHWIRQPPGEGLEWIGAIDGPTPDTAYSEKFKGRVTLTADKSTSTAYMELSSLTSEDTAVYYCTRFYSYTYWGQGTLVTVSSASTKGPSVFPLAPCSRSTSESTAALGCLVKDYFPEPVTVSWNSGALTSGVHTFPAVLQSSGLYSLSSVVTVPSSSLGTQTYTCNVDHKPSNTKVDKRVESKYGPPCPPCPAPEFRGGPKVFLFPPKPKDTLMISRTPEVTCVVVDVSQEDPEVQFNWYVDGVEVHNAKTKPREEQFASTYRVVSVLTVLHQDWLNGKEYKCKVSNKGLPSSIEKTISKAKGQPREPQVYTLPPSQEEMTKNQVSLTCLVKGFYPSDIAVEWESNGQPENNYKTTPPVLDSDGSFFLYSKLTVDKSRWQEGNVFSCSVMHEALHNHYTQESLSLSP
light: DIVMTQSPLSLPVTPGEPASISCRSSQPLVHSNRNTYLHWYQQKPGQAPRLLIYKVSNRFSGVPDRFSGSGSGTDFTLKISRVEAEDVGVYYCGQGTQVPYTFGQGTKLEIKRTVAAPSVFIFPPSDEQLKSGTASVVCLLNNFYPREAKVQWKVDNALQSGNSQESVTEQDSKDSTYSLSSTLTLSKADYEKHKVYACEVTHQGLSSPVTKSFNRGEC
B2: TR01H082-E2702GsKsc/GCH094-E2704sEpsc/L0201-k0 (bispecific antibody, human IgG4 S228P, kappa, N297A)
heavy 1: QVQLVESGGGLVQPGRSLRLSCAASGFTFSNAWMHWVRQAPGKGLEWVAQIKDKSQNYATYYAESVKGRFTISRDDSKNSLYLQMNSLKTEDTAVYYCRYVHYAAGYGVDAWGQGTTVTVSSASTKGPSVFPLAPCSRSTSESTAALGCLVKDYFPEPVTVSWNSGALTSGVHTFPAVLQSSGLYSLSSVVTVPSSSLGTKTYTCNVDHKPSNTKVDKRVESKYGPPCPPCPAPEFRGGPKVFLFPPKPKDTLMISRTPEVTCVVVDVSQEDPEVQFNWYVDGVEVHNAKTKPREEQFASTYRVVSVLTVLHQDWLNGKEYKCKVSNKGLPSSIEKTISKAKGQPREPQVYTLPPSQKEMTKNQVSLTCLVKGFYPSDIAVEWESNGQPENNYKTTPPVLDSDGSFFLYSKLTVDKSRWQEGNVFSCSVMHEALHNRYTQKSLSLSP
heavy 2: QVQLVQSGAEVKKPGASVTVSCKASGYTFTDYEMHWVRQAPGEGLEWMGAIDGETPDTAYSEKFKGRVTLTADKSTSTAYMELSSLTSEDTAVYYCTRFYSYTYWGQGTLVTVSSASTKGPSVFPLAPCSRSTSESTAALGCLVKDYFPEPVTVSWNSGALTSGVHTFPAVLQSSGLYSLSSVVTVPSSSLGTQTYTCNVDHKPSNTKVDKRVESKYGPPCPPCPAPEFRGGPKVFLFPPKPKDTLMISRTPEVTCVVVDVSQEDPEVQFNWYVDGVEVHNAKTKPREEQFASTYRVVSVLTVLHQDWLNGKEYKCKVSNKGLPSSIEKTISKAKGQPREPQVYTLPPSQEEMTKNQVSLTCLVKGFYPSDIAVEWESNGQPENNYKTTPPVLDSDGSFFLYSKLTVDKSRWQEGNVFSCSVMHEALHNHYTQESLSLSP
light: DIVMTQSPLSLPVTPGEPASISCRSSQPPVHSNRNTYLHWYQQKPGQAPRLLIYKVSNRFSGVPDRFSGSGSGTDFTLKISRVEAEDVGVYYCGQGTQVPYTFGQGTKLEIKRTVAAPSVFIFPPSDEQLKSGTASVVCLLNNFYPREAKVQWKVDNALQSGNSQESVTEQDSKDSTYSLSSTLTLSKADYEKHKVYACEVTHQGLSSPVTKSFNRGEC
B3: TR01H084-E2702GsKsc/GCH094-E2704sEpsc/L0011-k0 (bispecific antibody, human IgG4 S228P, kappa, N297A)
heavy 1: QVQLVESGGGVVQPGGSLRLSCAASGFTFSNAWMHWVRQAPGKGLEWVAQIKDKSQNYATYYAESVKGRFTISRADSKNSIYLQMNSLKTEDTAVYYCRYVHYAAGYGVDIWGQGTTVTVSSASTKGPSVFPLAPCSRSTSESTAALGCLVKDYFPEPVTVSWNSGALTSGVHTFPAVLQSSGLYSLSSVVTVPSSSLGTKTYTCNVDHKPSNTKVDKRVESKYGPPCPPCPAPEFRGGPKVFLFPPKPKDTLMISRTPEVTCVVVDVSQEDPEVQFNWYVDGVEVHNAKTKPREEQFASTYRVVSVLTVLHQDWLNGKEYKCKVSNKGLPSSIEKTISKAKGQPREPQVYTLPPSQKEMTKNQVSLTCLVKGFYPSDIAVEWESNGQPENNYKTTPPVLDSDGSFFLYSKLTVDKSRWQEGNVFSCSVMHEALHNRYTQKSLSLSP
heavy 2: QVQLVQSGAEVKKPGASVTVSCKASGYTFTDYEMHWVRQAPGEGLEWMGAIDGETPDTAYSEKFKGRVTLTADKSTSTAYMELSSLTSEDTAVYYCTRFYSYTYWGQGTLVTVSSASTKGPSVFPLAPCSRSTSESTAALGCLVKDYFPEPVTVSWNSGALTSGVHTFPAVLQSSGLYSLSSVVTVPSSSLGTQTYTCNVDHKPSNTKVDKRVESKYGPPCPPCPAPEFRGGPKVFLFPPKPKDTLMISRTPEVTCVVVDVSQEDPEVQFNWYVDGVEVHNAKTKPREEQFASTYRVVSVLTVLHQDWLNGKEYKCKVSNKGLPSSIEKTISKAKGQPREPQVYTLPPSQEEMTKNQVSLTCLVKGFYPSDIAVEWESNGQPENNYKTTPPVLDSDGSFFLYSKLTVDKSRWQEGNVFSCSVMHEALHNHYTQESLSLSP
light: DIVMTQSPLSLPVTPGEPASISCRSSQPLVHSNRNTYLHWYQQKPGQAPRLLIYKVSNRFSGVPDRFSGSGSGTDFTLKISRVEAEDVGVYYCGQGTQVPYTFGQGTKLEIKRTVAAPSVFIFPPSDEQLKSGTASVVCLLNNFYPREAKVQWKVDNALQSGNSQESVTEQDSKDSTYSLSSTLTLSKADYEKHKVYACEVTHQGLSSPVTKSFNRGEC
B4: TR01H040-E2702GsKsc/H0610-E2704sEpsc/L0000-k0 (bispecific antibody, human IgG4 S228P, kappa, N297A)
heavy 1: QVQLVESGGGLVQPGRSLRLSCAASGFTFSNAWMHWVRQAPGKGLEWVAQIKDKSQNYATYYAESVKGRFTISRADSKNSIYLQMNSLKTEDTAVYYCRYVHYSASYGVDAWGQGTTVTVSSASTKGPSVFPLAPCSRSTSESTAALGCLVKDYFPEPVTVSWNSGALTSGVHTFPAVLQSSGLYSLSSVVTVPSSSLGTKTYTCNVDHKPSNTKVDKRVESKYGPPCPPCPAPEFRGGPKVFLFPPKPKDTLMISRTPEVTCVVVDVSQEDPEVQFNWYVDGVEVHNAKTKPREEQFASTYRVVSVLTVLHQDWLNGKEYKCKVSNKGLPSSIEKTISKAKGQPREPQVYTLPPSQKEMTKNQVSLTCLVKGFYPSDIAVEWESNGQPENNYKTTPPVLDSDGSFFLYSKLTVDKSRWQEGNVFSCSVMHEALHNRYTQKSLSLSP
heavy 2: QVQLVQSGAEVKKPGASVKVSCKASGYTFTDYEMHWIRQPPGQGLEWIGAIDGKTPDTAYSQKFKGRVTLTADKSTSTAYMELSSLTSEDTAVYYCTRFYSYTYWGQGTLVTVSSASTKGPSVFPLAPCSRSTSESTAALGCLVKDYFPEPVTVSWNSGALTSGVHTFPAVLQSSGLYSLSSVVTVPSSSLGTQTYTCNVDHKPSNTKVDKRVESKYGPPCPPCPAPEFRGGPKVFLFPPKPKDTLMISRTPEVTCVVVDVSQEDPEVQFNWYVDGVEVHNAKTKPREEQFASTYRVVSVLTVLHQDWLNGKEYKCKVSNKGLPSSIEKTISKAKGQPREPQVYTLPPSQEEMTKNQVSLTCLVKGFYPSDIAVEWESNGQPENNYKTTPPVLDSDGSFFLYSKLTVDKSRWQEGNVFSCSVMHEALHNHYTQESLSLSP
light: DIVMTQSPLSLPVTPGEPASISCRSSQSLVHSNRNTYLHWYQQKPGQAPRLLIYKVSNRFSGVPDRFSGSGSGTDFTLKISRVEAEDVGVYYCGQGTQVPYTFGQGTKLEIKRTVAAPSVFIFPPSDEQLKSGTASVVCLLNNFYPREAKVQWKVDNALQSGNSQESVTEQDSKDSTYSLSSTLTLSKADYEKHKVYACEVTHQGLSSPVTKSFNRGEC

For this assay, the target named is extracellular matrix (BD Matrigel). The assay can be described thus: ECL on Matrigel-coated plate, relative to MRAH-G1d/MRAL-k0.
Regarding B1, the ECM binding ratio (standard = 1) was found to be 1.3.

Regarding B2, the ECM binding ratio (standard = 1) came out at 1.1.

Take B3: the ECM binding ratio (standard = 1) was 1.2.

Turning to B4, the ECM binding ratio (standard = 1) worked out at 0.8.
